Test results reported in doi:10.1101/2021.01.13.426575 (bioRxiv, 2021).
Where two headings read alike, the source gives them in different places.

B2: Full-length CARD8 (T60 isoform), wild type, co-expressed with DPP9S for cryo-EM (natural protein, human, UniProt Q9Y2G2-5 1-537, looked up)
chain: MEKKECPEKSSSSEEELPRRDSGSSRNIDASKLIRLQGSRKLLVDNSIRELQYTKTGIFFQAEACVTNDTVYRELPCVSETLCDISHFFQEDDETEAEPLLFRAVPECQLSGGDIPSVSEEQESSEGQDSGDICSEENQIVSSYASKVCFEIEEDYKNRQFLGPEGNVDVELIDKSTNRYSVWFPTAGWYLWSATGLGFLVRDEVTVTIAFGSWSQHLALDLQHHEQWLVGGPLFDVTAEPEEAVAEIHLPHFISLQAGEVDVSWFLVAHFKNEGMVLEHPARVEPFYAVLESPSFSLMGILLRIASGTRLSIPITSNTLIYYHPHPEDIKFHLYLVPSDALLTKAIDDEEDRFHGVRLQTSPPMEPLNFGSSYIVSNSANLKVMPKELKLSYRSPGEIQHFSKFYAGQMKEPIQLEITEKRHGTLVWDTEVKPVDLQLVAASAPPPFSGAAFVKENHRQLQARMGDLKGVLDDLQDNEVLTENEKELVEQEKTRQSKNEALLSMVEKKGDLALDVLFRSISERDPYLVSYLRQQNL
B4: DPP9, short isoform (DPP9S), co-expressed with CARD8 for cryo-EM (enzyme, human)
chain: MATTGTPTADRGDAAATDDPAARFQVQKHSWDGLRSIIHGSRKYSGLIVNKAPHDFQFVQKTDESGPHSHRLYYLGMPYGSRENSLLYSEIPKKVRKEALLLLSWKQMLDHFQATPHHGVYSREEELLRERKRLGVFGITSYDFHSESGLFLFQASNSLFHCRDGGKNGFMVSPMKPLEIKTQCSGPRMDPKICPADPAFFSFINNSDLWVANIETGEERRLTFCHQGLSNVLDDPKSAGVATFVIQEEFDRFTGYWWCPTASWEGSEGLKTLRILYEEVDESEVEVIHVPSPALEERKTDSYRYPRTGSKNPKIALKLAEFQTDSQGKIVSTQEKELVQPFSSLFPKVEYIARAGWTRDGKYAWAMFLDRPQQWLQLVLLPPALFIPSTENEEQRLASARAVPRNVQPYVVYEEVTNVWINVHDIFYPFPQSEGEDELCFLRANECKTGFCHLYKVTAVLKSQGYDWSEPFSPGEDEFKCPIKEEIALTSGEWEVLARHGSKIWVNEETKLVYFQGTKDTPLEHHLYVVSYEAAGEIVRLTTPGFSHSCSMSQNFDMFVSHYSSVSTPPCVHVYKLSGPDDDPLHKQPRFWASMMEAASCPPDYVPPEIFHFHTRSDVRLYGMIYKPHALQPGKKHPTVLFVYGGPQVQLVNNSFKGIKYLRLNTLASLGYAVVVIDGRGSCQRGLRFEGALKNQMGQVEIEDQVEGLQFVAEKYGFIDLSRVAIHGWSYGGFLSLMGLIHKPQVFKVAIAGAPVTVWMAYDTGYTERYMDVPENNQHGYEAGSVALHVEKLPNEPNRLLILHGFLDENVHFFHTNFLVSQLIRAGKPYQLQIYPNERHSIRCPESGEHYEVTLLHFLQEYL

Key:
Assay in all cases: cryo-EM structure
[1] = molecular target: B2
[2] = molecular target: B4
[3] = molecular target: B4; remark: listed apart in the source

B1: CARD8-CT (N-terminally degraded CARD8, UPA-CARD) in the purified CARD8-DPP9 complex (domain or fragment, human, UniProt Q9Y2G2-5 297-537, looked up)
chain: SLMGILLRIASGTRLSIPITSNTLIYYHPHPEDIKFHLYLVPSDALLTKAIDDEEDRFHGVRLQTSPPMEPLNFGSSYIVSNSANLKVMPKELKLSYRSPGEIQHFSKFYAGQMKEPIQLEITEKRHGTLVWDTEVKPVDLQLVAASAPPPFSGAAFVKENHRQLQARMGDLKGVLDDLQDNEVLTENEKELVEQEKTRQSKNEALLSMVEKKGDLALDVLFRSISERDPYLVSYLRQQNL
**Q.** Does B1 bind [1]?
**A.** binds

**Q.** Does B2 bind [2]?
**A.** binds

B3: Full-length CARD8 S297A (autoproteolysis-deficient), co-expressed with DPP9S for cryo-EM (natural protein, human, UniProt Q9Y2G2-5 1-537, looked up)
chain: MEKKECPEKSSSSEEELPRRDSGSSRNIDASKLIRLQGSRKLLVDNSIRELQYTKTGIFFQAEACVTNDTVYRELPCVSETLCDISHFFQEDDETEAEPLLFRAVPECQLSGGDIPSVSEEQESSEGQDSGDICSEENQIVSSYASKVCFEIEEDYKNRQFLGPEGNVDVELIDKSTNRYSVWFPTAGWYLWSATGLGFLVRDEVTVTIAFGSWSQHLALDLQHHEQWLVGGPLFDVTAEPEEAVAEIHLPHFISLQAGEVDVSWFLVAHFKNEGMVLEHPARVEPFYAVLESPSFALMGILLRIASGTRLSIPITSNTLIYYHPHPEDIKFHLYLVPSDALLTKAIDDEEDRFHGVRLQTSPPMEPLNFGSSYIVSNSANLKVMPKELKLSYRSPGEIQHFSKFYAGQMKEPIQLEITEKRHGTLVWDTEVKPVDLQLVAASAPPPFSGAAFVKENHRQLQARMGDLKGVLDDLQDNEVLTENEKELVEQEKTRQSKNEALLSMVEKKGDLALDVLFRSISERDPYLVSYLRQQNL
**Q.** Does B3 bind [3]?
**A.** binds

**Q.** How did the “stoichiometry N” value [1] turn out when B4 was run?
**A.** 1
